Assay results taken from article PMC9960230.

Legend:
Details in all cases: domain or fragment
[1] = target: Recombinant human FcRn conjugated with biotin (human) (UniProt P55899); assay: SPR; native Fc, pH 5.4
[2] = target: Recombinant human FcRn conjugated with biotin (human) (UniProt P55899); assay: SPR; heme-ox-exposed Fc, pH 5.4
[3] = target: Recombinant human FcRn conjugated with biotin (human) (UniProt P55899); assay: SPR; heme (Fe3+)-exposed Fc, pH 5.4

Recombinant human FcRn conjugated with biotin (human), sequence (P55899 24-297): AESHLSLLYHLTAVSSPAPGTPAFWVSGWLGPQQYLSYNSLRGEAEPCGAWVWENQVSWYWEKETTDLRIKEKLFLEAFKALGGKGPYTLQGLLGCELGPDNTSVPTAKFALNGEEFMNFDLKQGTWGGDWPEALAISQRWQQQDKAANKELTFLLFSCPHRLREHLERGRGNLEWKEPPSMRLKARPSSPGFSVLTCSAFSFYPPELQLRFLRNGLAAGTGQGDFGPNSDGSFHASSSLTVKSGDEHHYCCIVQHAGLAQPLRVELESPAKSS

- Kd [1]: 9.1 nM
- koff [1]: 0.00415 s⁻¹
- Kd [2]: 8 nM
- koff [2]: 0.00367 s⁻¹
- Kd [3]: 7.7 nM
- koff [3]: 0.004 s⁻¹
Substance: Fc-γ fragments obtained by papain digestion of polyclonal human IgG
